Measurements: the DeepSol protein solubility set

Assay: soluble on expression in E. coli; label from the status in PepcDB or PDB records

Soluble on expression in E. coli, not soluble:
MGSDKIHHHHHHMDVIFSIFLETFGDPIGQQPVPPAAVDHYQGKLPNRLLEYWQDHGWCGYGGGLFWLVNPQEYQGVVASWLAGTHFEACDTYHLIARSAFGDLYLWGEKTGSVLTIAAYHSRYLDGAHSSGDEERDNKIHGLLMWLMTECVYFDDLFEPARERLGTLGSDEMYGFVPALMLGGPDSLERLEKLKAVEHLVLLSQLSELEPYELTGEEDE
AEIVEGRDYTVLSAPQPTEGDSEHIEVIEFFWYGCPHCSDLHPHLSRWLENKPADVAFRFVPAILRNNWVPGAKTFYAMESLGLTQTLHDKVYHAIHREKTDLSKEATLFDWIGKQGVDRDKFIGAYNSFTVQNQANRSAQMIRQYKLTGVPALVVDGRYLTSGKAGGTPQDTISVLNQLIEK
MSLEIDADRFFKLFDSSVQGLRQCRLISAAFELGVFKALEVPLSAGALAEKIGCDPALMPHFCEALHSLGLLDRFEEGISEEKENAQIAVKGTGEAEGKEKPGDEPGDRIKNDGAVYFVSELSATYLPGNSPFSQKHYLAERIRNVERWSRLPQIMRQGPDIVEKGPFFGEVVHCMAENARCGLLQETVRVVMENVDFTNVKKFLDLGGGHGLYSIALTSLNENLQAFVFDLPPVTSETRYFIDKYGASRVDIIPGDFFKDDIGSDYDVIFSSFNPGGKVPSLIPKIAAALKPEGVFITRQVPDESMKSSPLMSLDWNLWTFEDVKKGSSGYSFENSVLFSEYIDMLGNHGLEVFRALDMTDGSRIVFAWKVTEGHHHHHH
MNHPNAPFQPPMDIDAVWQHSLIRVTDAFALPPIVLRVDDAIIGTLGNFSVSTGKAKAKKTFNVCALVAAALVNGQVLEYQASFPESKRNILYFDTEQSPYHCQLVLQRILALAELPLDQQPEHLLFSHLRSIASPEERRAIIRYAIYHTPNVGLVVIDGIRDLMHDINNSAEATNLMGDLMQWTGERNIHIQTVLHLNKGDDNARGHIGTELNNKTESVLLITKDNSDADRSVVSASIIRSKPFPPFAFRLTEVDNICLRELDTDFTAKDAQPFSYQELSGEEHRTALREAFGQACELGYGDLLKRLSSSYLGVSGRPYGQTKLKELLRFLVNKRMLVKASRGRYQFNPDFHY
MGSDKIHHHHHHMHLGKYIKKYRDTNNLSMAEFAKESGISKAYVSILEKNRDPRNGKEIIPSIPIIKKVSDTIGISFDDLLNSLDENQIVALNETKTEKNLTSSTLQKITSTSSQLEQPRQEKVLSFANEQLEEQNKVVSMFDRKVEETENYITDYVEGLVAAGLGAYQEDNLHMEVKLRADDVPDKYDTIAKVAGNSMEPLIQDNDLLFVKVSSQVDMNDIGIFQVNGKNFVKKLKRDYDGAWYLQSLNKSYEEIYLSENDNIRTIGEVVDIYREN
MTSQPTSSLQGSCSICFEDLKQNDKISAIVCGHIYHHGCISQWIATKRQCPSCRRTVPKNGFVEKLFFDVQRMGGEAEKPPEIDYREEHYKLSTSLKVEQEKLGTLNTENKNLKDTVKSLEKKIIREKDKYRQEIPKLQATINHLTISSEETAYLKRELQESKNRLKTCEFYKILTVHSSEADKQLGEYLKKNGNLDTEKFFQLMKSTNKDLTDKRREAAKEIEQLKMEVQSLKRAAQEDAAIKKV
MSKIIGSDRVKRGMAEMQKGGVIMDVVNAEQARIAEEAGAVAVMALERVPSDIRAAGGVARMANPKIVEEVMNAVSIPVMAKARIGHITEARVLEAMGVDYIDESEVLTPADEEYHLRKDQFTVPFVCGCRNLGEAARRIGEGAAMLRTKGEPGTGNIVEAVRHMRQVNSEVSRLTVMNDDEIMTFAKDIGAPYEILKQIKDNGRLPVVNFAAGGVATPQDAALMMELGADGVFVGSGIFKSEDPEKFAKAIVQATTHYQDYELIGRLASELGTAMKGLDINQLSLEERMQERGWMAGDPLEHHHHHH

Soluble on expression in E. coli, soluble:
MAHHHHHHMSSPQVVCEAKKAFEANKRVYESVLLTFKGVDGYDVYNCSVPFSYKGKTHIYGRVEKRDIWAASHVRLFEETGKDEFTAVPDGMTWLLEDPFVSSVKGEALFGGTRIRKVSNRLLSYYCDFFRGGIEQGLYFTTGPDNMKDIRCVELANGSIGVFSRPKTDVYTCIGFTIIDDLSELTQKVINEAEPLNVLHPGAWGGVNQAYLLTSGKVGCIAHYSYNSKDDKDCPTSVYLNYSFVLDPETKQAEMERIIGTRSCYPDYPVKAERLIDCAFSSGIVMREDGKCDLYSGLGDTCEGRIAIDYPFEGYGAVVDQLSF
MIGVGKMKQYSNVLDKPLSKGKQEVSLTAFAFLFSELVQYNQTQVDNIAELERRLEDAGYAVGSRVLELLCNREKGNRRETRLLGILSFVHSTVWKVLFGKVADSLEKGTEHEDEYMISEKELLVNRFISIPKDMGTFNCGAFVAGIVKGVLDNAGFPAVVTAHFVPIEGQQRPRTTILIKFADEVLKREARLSQ
MTGHRPACPPIPADVYTRLERRIGRCHLNQRLGIEHDFEARIFGQGRTFFHIENWNRLHTLLRRLLKLSLLYRPGQRAARRIEIRRNEFTLPHLPEAFEGYTLLHISDLHLDMAGDLPDALIRAIGQAGHYDACVLTGDFRARTFGPYRGAIDGLAQVRTHIDKPVFAILGNHDTIRMTPEIEDLGIGVLLNEAREIRQDGASIFLAGVDDPHYYRADNIEKAADPIPQGAVSILLSHSPELYRHAAYADFDIMLCGHTHGGQICLPGGIALTLNARCPRAFGRGYWRYHRMQGYTSAGSGVSILDIRLNCPPEITLHRLSRHRLSKGGCECGGGKGLEHHHHHH
QLRDFSSIIQTCSGNIQRISQATAQIKNLMSQLGTKQDSSKLQENLQQLQHSTNQLAKETNELLKELGSLPLPLSTSEQRQQRLQKERLMNDFSAALNNFQAVQRRVSEKEKESIAR
MVALPTINQLVRKGREKVRKKSKVPALKGAPFRRGVCTVVRTVTPKKPNSALRKVAKVRLTSGYEVTAYIPGEGHNLQEHSVVLIRGGRVKDLPGVRYHIVRGVYDAAGVKDRKKSRSKYGTKKPKEAAKTAAKK
GSHMNIITVTLNMEKYNFLGISIVGQSNERGDGGIYIGSIMKGGAVAADGRIEPGDMLLQVNDMNFENMSNDDAVRVLRDIVHKPGPIVLTVAKSGGGGEIVLWSDIP
MSYYHHHHHHLESTSLYKKSSSTPPRGVTVVNNFDAKRYLGTWYEIARFDHRFERGLEKVTATYSLRDDGGLNVINKGYNPDRGMWQQSEGKAYFTGAPTRAALKVSFFGPFYGGYNVIALDREYRHALVCGPDRDYLWILSRTPTISDEVKQEMLAVATREGFDVSKFIWVQQPGS
LRSRRKPSSRIGRRPSTTQDRISTVGIELFTEQGFDATSVDEVAEASGIARRTLFRYFPSKNAIPWGDFDAHLAEMRAQLAAQPDDIPIVDGLTAALLQFNAFPASEEINHRKRMGLILRVPALQAYSVVMYEGWRNVIAEYVASRLGTSPTDHVPRTVGYLLLGVAMSAYEQWLDDDSLELNELLASGMQSLYDGLSSLGEPDTRT
MKDKVYKRPVSILVVIYAQDTKRVLMLQRRDDPDFWQSVTGSVEEGETAPQAAMREVKEEVTIDVVAEQLTLIDCQRTVEFEIFSHLRHRYAPGVTRNTESWFCLALPHERQIVFTEHLAYKWLDAPAAAALTKSWSNRQAIEQFVINAA
MYKLDHLNHNTLDESSLELHETPKGYTNVALFGLDSRDGELSGGVRSDSIMIVSINNKTGDVKIISVYRDTLLKQQDGSYEKANAAYSFGGPQEAVAMLNRNLDLDITKYASVNFNSLADIIDILGGVEVELTSEEIFWLNGYTAETSQVVGRQTHTLDENSPGVHNLDGIQAVSYTRIRYTAGDDFKRAERQRIILQKMIQKLKTAGPVKWNKILDQVLPEISTNMTTPDIMKLGLNIFRYKIGETKGFPFDITTSENVIGLEGSYAVAIGHADNVRQLHEQLFGETGYQPSDEVQQISQDVAYLTGVLEHHHHHH
MSLSIKLIAVDIDGTLVNSQKEITPEVFSAIQDAKEAGVKVVIATGRPIAGVAKLLDDLQLRDQGDYVVTFNGALVQETATGHEIISESLTYEDYLDMEFLSRKLGVHMHAITKDGIYTANRNIGKYTVHESTLVSMPIFYRTPEEMAGKEIVKCMFIDEPEILDAAIEKIPAEFYERYSINKSAPFYLELLTKNVDKGSAITHLAEKLGLTKDETMAIGDEENDRAMLEVVGNPVVMENGNPEIKKIAKYITKTNDESGVAHAIRTWVLEGHHHHHH
